This is an account of results in patent US10058586B2, “Use of human small leucine zipper protein in adipocyte differentiation procedure” (Korea University Research and Business Foundation, priority 2013, dated 2018).

For data set [1], the system named is PPARγ2. Kind of data set: GST pull-down / immunoprecipitation of sLZIP and PPARγ2 in transfected 293T cells. The class given is binding. The protocol: 293T cells were obtained and washed with cold PBS. The cells were re-suspended in an IP lysis buffer [25 mM of Tris-HCl (pH 7.4), 150 mM of NaCl, 1 mM of EDTA, 1% NP-40 and 5% glycerol, and a protease inhibitor]. A suspension was centrifuged at 16,000×g for 20 minutes at 4° C. Supernatants were collected and incubated with 0.5 μg of appropriate antibodies and 25 μl of protein A/G-agarose or a GST Sepharose 4B bead for 24 hours at 4° C. A protein complex was centrifuged at 1,000×g with a cold IP lysis buffer for 1 minute and washed five times. The final pellet was re-suspended in 50 μl of an SDS-sample buffer containing 5% β-mercaptoethanol and heated for 10 minutes at 100° C. A protein sample was isolated in SDS-PAGE (8 to 10%) and transferred to nitrocellulose membranes. Co-precipitated proteins were detected according to western blotting using specific antibodies.
In order to examine whether the transcriptional activity of PPARγ2 is regulated by interaction with sLZIP, interaction between sLZIP and PPARγ2 was examined. For this purpose, 293T cells were transfected with GST-sLZIP and Myc-PPARγ2. Cell lysates were obtained and GST pull-down analysis was performed using a glutathione 4B bead. A protein complex was analyzed in SDS-PAGE and then immunoblotted with specific antibodies (FIG. 2A). The 293T cells were transfected with GST-PPARγ2 and Flag-sLZIP, and identified according to GST-pull-down analysis (FIG. 2B). PPARγ2 was translated in vitro by a TNT translation system (Promega). His-sLZIP proteins were expressed in BL21 cells using an IPTG-inducement system. Purified His-sLZIP proteins were subjected to His pull-down analysis. Proteins bound to the bead were analyzed in SDS-PAGE, and then immunoblotted with anti-PPARγ2 and anti-His antibodies (FIG. 2C). GFP-PPARγ2 and Flag-sLZIP constructs were expressed in C3H10T1/2 cells, and analyzed using mouse anti-Flag and Texas Red-labeled anti-mouse antibodies under a fluorescence microscope. The nucleus was stained with DAPI (FIG. 2D).
Activation of many nuclear receptors depends on a supplement of coactivators. Therefore, a domain of sLZIP necessary for binding with PPARγ2 was examined. For this purpose, 293T cells were transfected with GST-full length sLZIP (1-354), N-terminal deletion mutant sLZIP (1-228), C-terminal deletion mutant sLZIP (229-354), CC-terminal deletion mutant sLZIP (297-354) and PPARγ2. Cell lysates were obtained and GST pull-down analysis was performed using a glutathione 4B bead. A protein complex was analyzed in SDS-PAGE, and then immunoblotted with specific antibodies (FIG. 3A). 293T cells were transfected with Flag-full length PPARγ2, full length PPARγ2, N-terminal deletion mutant PPARγ2 (1-310), C-terminal deletion mutants PPARγ2 (139-505) and GST-sLZIP. Cell lysates were obtained and GST pull-down analysis was performed. A protein complex was analyzed in SDS-PAGE, and then immunoblotted with anti-GST and anti-Flag antibodies (FIG. 3B).
For this purpose, 293T cells were transfected with GST-PPARγ2 and Flag-sLZIP and were treated or not treated with 10 nM of RZD for 24 hours. Cell lysates were obtained and GST pull-down analysis (FIG. 5A) and immunoprecipitation (FIG. 5B) were performed using a glutathione 4B bead. A protein complex was analyzed in SDS-PAGE, and immunoblotted with anti-GST and anti-Flag antibodies. GST-PARγ2 and Flag-sLZIP were expressed in the 293T cells, and the cells were treated with 10 nM of RZD according to time of day. The cell lysates were GST pull-down analyzed (FIG. 5C). 293T cells were transfected with GST-HDAC3 and Flag-sLZIP, and treated or not treated with 10 nM of RZD for 24 hours. The cell lysates were GST pull-down analyzed (FIG. 5D). Flag-sLZIP was expressed in the 293T cells, and the cells were treated with 10 nM of RZD for 24 hours. Immunoprecipitation analysis of the cell lysates was performed using anti-NCoR1 antibodies. […]

The nature of another data set: Solubility of sLZIP. It is filed as physicochemical. As to conditions: saline or buffer solution.
Data set [2] concerns the target T1, PPARγ2 (Mus musculus, UniProt P37238).
T1 construct: endogenous in cells
T1 sequence (P37238 1-505): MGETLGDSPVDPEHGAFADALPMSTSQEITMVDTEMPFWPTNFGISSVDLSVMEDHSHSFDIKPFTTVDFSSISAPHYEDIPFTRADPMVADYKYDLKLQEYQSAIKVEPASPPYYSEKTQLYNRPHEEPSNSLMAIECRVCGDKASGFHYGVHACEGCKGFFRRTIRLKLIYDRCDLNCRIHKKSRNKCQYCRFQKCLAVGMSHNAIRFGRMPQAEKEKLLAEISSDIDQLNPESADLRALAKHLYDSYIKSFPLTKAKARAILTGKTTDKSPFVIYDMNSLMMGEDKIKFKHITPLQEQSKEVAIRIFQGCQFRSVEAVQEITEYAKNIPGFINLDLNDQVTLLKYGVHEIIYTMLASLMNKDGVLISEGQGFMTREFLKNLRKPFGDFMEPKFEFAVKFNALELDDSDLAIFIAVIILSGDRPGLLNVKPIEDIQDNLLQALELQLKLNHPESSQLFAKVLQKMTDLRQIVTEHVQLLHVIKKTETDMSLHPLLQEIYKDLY
Kind of data set: FABP4-Luc stable C3H10T1/2 cells infected with sLZIP-expressing adenovirus and differentiated into adipocytes. The class given is cell-based. As to conditions: sLZIP adenovirus, differentiated into adipocytes for 4 days.

B1: N domains of sLZIP: N-terminal deletion mutant of sLZIP, residues 1-228 (protein)
chain: MELELDAGDQDLLAFLLEESGDLGTAPDEAVRAPLDWALPLSEVPSDWEVDDLLCSLLSPPASLNILSSSNPCLVHHDHTYSLPRETVSMDLESESCRKEGTQMTPQHMEELAEQEIARLVLTDEEKSLLEKEGLILPETLPLTKTEEQILKRVRRKIRNKRSAQESRRKKKVYVGGLESRVLKYTAQNMELQNKVQLLEEQNLSLLDQLRKLQAMVIEISNKTSSSS
modifications: left off: a dimerising Fc or GST
B1: the “interaction with PPARγ2 (GST pull-down)” value in the data set with PPARγ2 [1] (293T cells, no ligand) is reported as “not interacted with PPARγ2”.

B2: sLZIP: human small leucine-zipper protein, isoform of LZIP, 354 amino acids, no transmembrane domain; GenBank FJ263669, SEQ ID NO: 1 (protein, listed as Homo sapiens)
chain: MELELDAGDQDLLAFLLEESGDLGTAPDEAVRAPLDWALPLSEVPSDWEVDDLLCSLLSPPASLNILSSSNPCLVHHDHTYSLPRETVSMDLESESCRKEGTQMTPQHMEELAEQEIARLVLTDEEKSLLEKEGLILPETLPLTKTEEQILKRVRRKIRNKRSAQESRRKKKVYVGGLESRVLKYTAQNMELQNKVQLLEEQNLSLLDQLRKLQAMVIEISNKTSSSSMYSSDTRGSLPAEHGVLSRQLRALPSEDPYQLELPALQSEVPKDSTHQWLDGSDCVLQAPGNTSCLLHYMPQAPSAEPPLEWPFPDLFSEPLCRGPILPLQANLTRKGGWLPTGSPSVILQDRYSG
With B2, in “Solubility of sLZIP”, the solubility result is “very soluble in a saline or a buffer solution”. Also, the “transcriptional activity of PPARγ2 (relative luciferase activity)” value with PPARγ2 [2] was “the transcriptional activity of PPARγ2 decreased in adipocytes”. Further, in the data set on PPARγ2 [1] (293T cells expressing Flag-sLZIP and GST-PPARγ2, ligand treated), the “interaction with PPARγ2 (immunoprecipitation)” value is “PPARγ2 was dissociated from sLZIP”. Further, the “interaction with PPARγ2 (GST pull-down)” value is “dissociated from PPARγ2” with PPARγ2 [1] (293T cells, 10 nM RZD for 24 hours); “PPARγ2 interacted with sLZIP” with PPARγ2 [1] (293T cells, no ligand); “interacted with PPARγ2” with PPARγ2 [1] (293T cells, no ligand, listed as wild type sLZIP). Also, the “time dependence of interaction with PPARγ2 (GST pull-down)” value with PPARγ2 [1] (293T cells, 10 nM RZD, time course) is “dissociated from PPARγ2 in a time-dependent manner”.
